The target in this experiment is T1, human receptor tyrosine kinase like orphan receptor 1 (ROR1) expressed on cells (human, UniProt Q01973 30-937).
T1 construct: whole, on cells; also called human ROR1; ROR1-L cells
The experiment can be described thus: cell ELISA and flow cytometry on L cells transfected with human ROR1; also positive staining of ROR1+ lymphoma lines Jeko-1, SP-53, CA46. (In general: An ELISA detects its analyte on a solid surface through an enzyme-linked reagent.)

Experimental findings from patent US20250222105A1 (University of Texas, published 2025) are described below.

B1: anti-ROR1 monoclonal antibody A97 (antibody, V domains shown)
VH: EVQLQQSGPELEKPGASVKISCKASGYSFIGYSMNWVRQSDGKSLEWIGNIDPYYGGTSYNLKFKGKATLTVDKSSSTAYMQLKSLTSEDSAVYYCARLGRGYFDYWGQGTTLTVSS
VL: DIVLTQSPATLSVTPGDSVSLSCRASQSITNNLHWYQQKSHESPRLLIKSASQSISGIPSRFSGSGSGTDFTLSINSVETEDFGMYFCQQSNSWPHTFGGGTKLEIK
notes: Mouse monoclonal antibody from hybridoma
As for B1, the binding result is given as “binds”.

B2: anti-ROR1 monoclonal antibody A148 (antibody, V domains shown)
VH: DVQLQESGPGLVKPSQSLSLTCSVSGYSITSGYYWNWIRQFPGNKLEWMGYISNDGSNKYKPSLKNRISITRDTSKNQFFLKLNSVTTEDTATYYCARFPLINYDPWLAYWGQGTLVTVSA
VL: DVLMTQTPLSLPVSLGDQASISCRSSQNVVHRNGNTYLEWYLQKPGQSPKLLIYKVSNRFSGVPDRFSGSGSGTDFTLKISRVEAEDLGVYYCFQGSHVPWTFGGGTKLEIK
notes: as for B1
With B2, the binding result is recorded as “binds”.

B3: anti-ROR1 monoclonal antibody A142 (antibody, V domains shown)
VH: EVQLQQSGPDLVKPGASVKISCKASGYSFTGYYMHWVKQSHGKSLEWIGRVYPNNGGTSYNQKFKGKAILTVDKSSTTAYMELRSLTSEDSAVYYCALIHYYGFYSMDYWGQGTSVTVSS
VL: DVLMTQTPLSLPVSLGDQASISCRSSQSIVHSNGNTYLEWYLQKPGQSPKLLIYKVSNRFSGVPDRFSGSGSGTDFTLKISRVEAEDLGVYYCFQGSHVPWTFGGGTKLEIN
notes: as for B1
Turning to B3, the binding result is “binds”.

B4: anti-ROR1 monoclonal antibody A130 (antibody, V domains shown)
VH: DVQLQESGPGLVKPSQSLSLTCSVTGYSITSGYYWNWIRQFPGNKLEWMGYIRNDGSNNYNPSLKNRISITRDTSKNQFFLKLNSVTTEDTATYYCARFPLINYDPWFAYWGQGTLVTVSA
VL: ETTVTQSPASLSVATGEKVTIRCITSTDIDDDMNWYQQKPGEPPKLLISEANTLRPGVPSRFSSSGYGTDFVFTIENTLSEDVADYYCLQSYNMPLTFGAGTTLELK
notes: as for B1
For B4, the binding result was “binds”.

B5: anti-ROR1 monoclonal antibody A129 (antibody, V domains shown)
VH: DVQLQESGPGLVKPSQSLSLTCSVTGYSITSGYYWNWIRQFPGNKLEWMGYIRNDGSNNYNPSLKNRISITRDTSKNQFFLKLNSVTTEDTATYYCARFPLINYDPWFAYWGQGTLVTVSA
VL: DVLMTQAPLSLPVSLGDQASISCRSSQNVVHRNGNTYLEWYLQKPGQSPKLLIYKVSNRFSGVPDRFSGSGSGTDFTLKISRVEAEDLGVYYCFQGSHVPWTFGGGTKLEIK
notes: as for B1
For the molecule B5, the binding result was “binds”.

B6: anti-ROR1 monoclonal antibody A89 (antibody, V domains shown)
VH: DVQLQESGPGLVKPSQSLSLTCSVSGYSITSGYYWSWIRQFPGNKLEWMGYISNDGSNKYKPSLKNRISITRDTSKNQFFLKLKSVTTEDTATYYCARFPLINYDPWLAYWGQGTLVTVSA
VL: DVLMTQTPLSLPVSLGDQASISCRSSQSIVHSNGNTYLEWYLQKPGQSPKLLIYKVSNRFSGVPDRFSGSGSGTDFTLKISRVEAEDLGVYYCFQGSHVPWTFGGGTKLEIN
notes: Mouse monoclonal antibody from hybridoma (BALB/c mice immunized with ROR1-expressing L cells)
On to B6, for which the binding result is “binds”.

B7: anti-ROR1 monoclonal antibody A140 (antibody, V domains shown)
VH: DVQLQESGPGLVKPSQSLSLTCSVSGYSITSGYYWNWIRQFPGNKLEWMGYISNDGNNKYKPSLKNRISITRDTSKNQFFLKLNSVTAEDTATYYCARFPLINYDPWLAYWGQGTLVTVSA
VL: DVLMTQTPLSLPVSLGDQASISCRSSQSIVHSNGNTYLEWYLQKPGQSPKLLIYKVSNRFSGVPDRFSGSGSGTDFTLKISRVEAEDLGVYYCFQGSHVPWTFGGGTKLEIN
notes: as for B1
On to B7, for which the binding result is recorded as “binds”.
